{
  "source": "paper PMC6233222",
  "about": "“Structure and oligomerization of the periplasmic domain of GspL from the type II secretion system of Pseudomonas aeruginosa” (Scientific Reports, 2018)",
  "proteins": {"B1": {"name": "GspL^fld, the crystallized proteolytic product of GspL^peri (ferredoxin-like domain of GspL) (domain or fragment)", "chain": "RAQFDQHLADSASSGGEGQLLGLLGQAATVIGGEPTVSVEQLDFSAARGDVALQVRAPGFDVLERLRSRLSESGLAVQLGSASRDGSTVSARLVIGG", "notes": "GspL (XcpY), P. aeruginosa PAO1; proteolytic product of the construct 261-382 with the new N-terminus at residue 286 (Edman degradation); the C-terminal limit 382 is that of the parent construct; The protease is not identified; the N-terminal Strep-tag is lost with the N-terminal part of the MPD; also called Gsp^fld; crystal form 1; source: E. coli BL21 (DE3), purified GspL^peri (late elution …)"}, "B2": {"name": "GspL^peri, the complete periplasmic segment of general secretory pathway protein L (GspL) from Pseudomonas aeruginosa (domain or fragment)", "chain": "GDRYAAQSAELYRQLFPEDRKLINLRAQFDQHLADSASSGGEGQLLGLLGQAATVIGGEPTVSVEQLDFSAARGDVALQVRAPGFDVLERLRSRLSESGLAVQLGSASRDGSTVSARLVIGG", "notes": "membrane proximal domain (MPD), short linker and ferredoxin-like domain (FLD); calculated mass of the construct 13.95 kDa; No step that removes the tag is described; also called XcpY (periplasmic segment); EEP and LEP material; source: E. coli BL21 (DE3), purified (Strep-tactin, SEC on Superdex 75); not shown: Strep-tag, N-terminal, kept"}, "B3": {"name": "GspL^fld purified from GspL^peri that was incubated in crystallization conditions over 48 hours (domain or fragment)", "chain": "DSASSGGEGQLLGLLGQAATVIGGEPTVSVEQLDFSAARGDVALQVRAPGFDVLERLRSRLSESGLAVQLGSASRDGSTVSARLVIGG", "notes": "GspL (XcpY), P. aeruginosa PAO1; mixture of two proteolytic variants of the construct 261-382 that start at residues 286 and 295 (Edman degradation), the shorter one (from 295) predominant; the C-terminal limit 382 is that of the parent construct; The sample is a mixture of 295-382 (predominant) and 286-382; also called GspL^fld (in solution); 10 kDa band; source: E. coli BL21 (DE3), purified …"}},
  "key": {"[1]": {"molecular_target": "the molecule itself", "experiment": "crystal structure; crystal form 1, space group I4(1)22, 2.5 Å; dimer generated by a crystallographic 2-fold axis; sample from the LEP, sitting drop vapor diffusion at 20 °C"}, "[2]": {"molecular_target": "the molecule itself", "experiment": "SEC-MALLS; early elution peak (EEP) of GspL^peri, one hour after purification and after concentration; Superdex 200 increase in 50 mM TRIS pH 7.5, 100 mM NaCl; tetramer converts irreversibly into dimers"}, "[3]": {"molecular_target": "the molecule itself", "experiment": "SEC-SAXS; early elution peak of GspL^peri, 9.0 mg/ml injected; Bio SEC-3 column, SWING beamline"}, "[4]": {"molecular_target": "the molecule itself", "experiment": "SEC-SAXS; late elution peak of GspL^peri, 13.7 mg/ml injected; Bio SEC-3 column, SWING beamline"}, "[5]": {"molecular_target": "the molecule itself", "experiment": "SEC-MALLS; GspL^fld made by incubation of GspL^peri in crystallization conditions over 48 hours and purified by SEC (absorbance at 220 nm)"}},
  "data": [
    {"protein": "B1", "values": [
      {"measurement": "stoichiometry N", "setting": "[1]", "value": 2}
    ]},
    {"protein": "B2", "values": [
      {"measurement": "tetramer to dimer ratio of peak areas, higher concentration", "setting": "[2]", "value": 0.57},
      {"measurement": "tetramer to dimer ratio of peak areas, lower concentration", "setting": "[2]", "value": 0.7},
      {"measurement": "stoichiometry N", "setting": "[3]", "value": 4},
      {"measurement": "stoichiometry N", "setting": "[4]", "value": 2}
    ]},
    {"protein": "B3", "values": [
      {"measurement": "stoichiometry N", "setting": "[5]", "value": 2}
    ]}
  ]
}
